5 molecules from patent publication US12269859B2, “Synthetic immune receptors and methods of use thereof” (Angeles Therapeutics, Inc., priority 2016, dated 2025) can be followed below.

For this assay, the system named is target antigen-expressing cell line. Briefly: Jurkat NFAT-GFP assay, coculture with target cell lines expressing the respective target antigen (summary Table 10A). Further details: key: The signs +/−, +, 2+ etc. after the name of the cell lines indicate the relative degree of positivity on the Jurkat-NFAT-GFP assay as measured by the % GFP positive cells; +: relative degree of positivity on the Jurkat-NFAT-GFP assay as measured by the % GFP positive cells; 2+: relative degree of positivity on the Jurkat-NFAT-GFP assay as measured by the % GFP positive cells. Format: cell-based, human. The procedure, abridged:
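Jurkat cells carrying an NFAT-site IL-2 promoter driving GFP were lentivirally transduced with SIRs, puromycin-selected, then cocultured with antigen-expressing target cells at E:T about 1:2 for about 4–18 hours. GFP induction was read by flow cytometry as % GFP-positive cells versus parental Jurkat-NFAT-GFP.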

B1: 010417-V07 (protein)
chain: MALPVTALLLPLALLLHAARPLEGKPIPNPLLGLDSTGSGEDLKNVFPPEVAVFEPSKAEIAHTQKATLVCLATGFYPDHVELSWWVNGKEVHSGVCTDPQPLKEQPALNDSRYCLSSRLRVSATFWQNPRNHFRCQVQFYGLSENDEWTQDRAKPVTQIVSAEAWGRADCGITSASYHQGVLSATILYEILLGKATLYAVLVSALVLMAMVKRKDSRGRAKRSGSGATNFSLLKQAGDVEENPGPTSTMALPVTALLLPLALLLHAARPDIQMTQSPSSLSASVGDRVTITCKASQDVGIAVAWYQQKPGKVPKLLIYWASTRHTGVPDRFSGSGSGTDFTLTISSLQPEDVATYYCQQYSSYPYTFGQGTKVEIKGGGGSGGGGSGGGGSEVQLVESGGGLVQPGGSLRLSCAASGFDFSRYWMSWVRQAPGKGLEWIGEINPDSSTINYAPSLKDKFIISRDNAKNSLYLQMNSLRAEDTAVYYCARPDGNYWYFDVWGQGTLVTVSSTREAAAKEIVLTQSPATLSLSPGERATLSCSASSSVSYMHWYQQKPGQAPRLLIYDTSKLASGIPARFSGSGSGTDFTLTISSLEPEDVAVYYCFQGSVYPFTFGQGTKLEIKRGGGGSGGGGSGGGGSQVQLQESGPGLVKPSQTLSLTCTVSGGSISTSGMGVGWIRQHPGKGLEWIGHIWWDDDKRYNPALKSRVTISVDTSKNQFSLKLSSVTAADTAVYYCARMELWSYYFDYWGQGTLVTVSSTREQKLISEEDGSGIQNPDPAVYQLRDSKSSDKSVCLFTDFDSQTNVSQSKDSDVYITDKCVLDMRSMDFKSNSAVAWSNKSDFACANAFNNSIIPEDTFFPSSDVPCDVKLVEKSFETDTNLNFQNLSVIGFRILLLKVAGFNLLMTLRLWSSRAKRSGSGVKQTLNFDLLKLAGDVESNPGPSRGHMTEYKPTVRLATRDDVPRAVRTLAAAFADYPATRHTVDPDRHIERVTELQELFLTRVGLDIGKVWVADDGAAVAVWTTPESVEAGAVFAEIGPRMAELSGSRLAAQQQMEGLLAPHRPKEPAWFLATVGVSPDHQGKGLGSAVVLPGVEAAERAGVPAFLETSAPRNLPFYERLGFTVTADVEVPEGPRTWCMTRKPGA
As to B1, the “NFAT-GFP ASSAY Positive Cell lines” value is listed as “(+), L363 (+), U266” (coculture with L363 cells); “(+), L363 (+), U266” (coculture with NALM6 cells); “RAJI (+), NALM6” (coculture with RAJI cells); “(+)” (coculture with U266 cells).

B2: 010417-Z03 (protein)
chain: MALPVTALLLPLALLLHAARPLEGKPIPNPLLGLDSTGSGEDLKNVFPPEVAVFEPSKAEIAHTQKATLVCLATGFYPDHVELSWWVNGKEVHSGVCTDPQPLKEQPALNDSRYCLSSRLRVSATFWQNPRNHFRCQVQFYGLSENDEWTQDRAKPVTQIVSAEAWGRADCGITSASYHQGVLSATILYEILLGKATLYAVLVSALVLMAMVKRKDSRGRAKRSGSGATNFSLLKQAGDVEENPGPTSTMALPVTALLLPLALLLHAARPDIQMTQSPSSLSASVGDRVTITCKASQDVGIAVAWYQQKPGKVPKLLIYWASTRHTGVPDRFSGSGSGTDFTLTISSLQPEDVATYYCQQYSSYPYTFGQGTKVEIKGGGGSGGGGSGGGGSEVQLVESGGGLVQPGGSLRLSCAASGFDFSRYWMSWVRQAPGKGLEWIGEINPDSSTINYAPSLKDKFIISRDNAKNSLYLQMNSLRAEDTAVYYCARPDGNYWYFDVWGQGTLVTVSSTREAAAKEIVMTQSPATLSLSPGERATLSCRASQDISKYLNWYQQKPGQAPRLLIYHTSRLHSGIPARFSGSGSGTDYTLTISSLQPEDFAVYFCQQGNTLPYTFGQGTKLEIKGGGGSGGGGSGGGGSQVQLQESGPGLVKPSETLSLTCTVSGVSLPDYGVSWIRQPPGKGLEWIGVIWGSETTYYNSSLKSRVTISKDNSKNQVSLKLSSVTAADTAVYYCAKHYYYGGSYAMDYWGQGTLVTVSSTREQKLISEEDGSGIQNPDPAVYQLRDSKSSDKSVCLFTDFDSQTNVSQSKDSDVYITDKCVLDMRSMDFKSNSAVAWSNKSDFACANAFNNSIIPEDTFFPSSDVPCDVKLVEKSFETDTNLNFQNLSVIGFRILLLKVAGFNLLMTLRLWSSRAKRSGSGVKQTLNFDLLKLAGDVESNPGPSRGHMTEYKPTVRLATRDDVPRAVRTLAAAFADYPATRHTVDPDRHIERVTELQELFLTRVGLDIGKVWVADDGAAVAVWTTPESVEAGAVFAEIGPRMAELSGSRLAAQQQMEGLLAPHRPKEPAWFLATVGVSPDHQGKGLGSAVVLPGVEAAERAGVPAFLETSAPRNLPFYERLGFTVTADVEVPEGPRTWCMTRKPGA
With B2, the “NFAT-GFP ASSAY Positive Cell lines” value was “NALM6” (coculture with NALM6 cells) and “RAJI” (coculture with RAJI cells).

B3: 111915-U05 (protein)
chain: MALPVTALLLPLALLLHAARPDEFEVQLVESGGGLVQAGGSLRLSCVASGISSSKRNMGWYRQAPGKQRESVATISSGGNKDYTDAVKDRFTISRDTTKNTVYLQMNSLKPEDTAVYYCKIEAGTGWATRRGYTYWGQGTLVTVSSLEGKPIPNPLLGLDSTGSGEDLKNVFPPEVAVFEPSEAEISHTQKATLVCLATGFYPDHVELSWWVNGKEVHSGVCTDPQPLKEQPALNDSRYCLSSRLRVSATFWQNPRNHFRCQVQFYGLSENDEWTQDRAKPVTQIVSAEAWGRADCGFTSESYQQGVLSATILYEILLGKATLYAVLVSALVLMAMVKRKDSRGRAKRSGSGATNFSLLKQAGDVEENPGPTSMDWIWRILFLVGAATGAHSFEVQLVESGGGSVQPGGSLTLSCGTSGRTFNVMGWFRQAPGKEREFVAAVRWSSTGIYYTQYADSVKSRFTISRDNAKNTVYLEMNSLKPEDTAVYYCAADTYNSNPARWDGYDFRGQGTQVTVSSTREQKLISEEDGSGIQNPDPAVYQLRDSKSSDKSVCLFTDFDSQTNVSQSKDSDVYITDKCVLDMRSMDFKSNSAVAWSNKSDFACANAFNNSIIPEDTFFPSPESSCDVKLVEKSFETDTNLNFQNLSVIGFRILLLKVAGFNLLMTLRLWSSRAKRSGSGVKQTLNFDLLKLAGDVESNPGPSRGHMTEYKPTVRLATRDDVPRAVRTLAAAFADYPATRHTVDPDRHIERVTELQELFLTRVGLDIGKVWVADDGAAVAVWTTPESVEAGAVFAEIGPRMAELSGSRLAAQQQMEGLLAPHRPKEPAWFLATVGVSPDHQGKGLGSAVVLPGVEAAERAGVPAFLETSAPRNLPFYERLGFTVTADVEVPEGPRTWCMTRKPGA
modifications: Polynucleotide encoding a Synthetic Immune Receptor (SIR)
B3: the “NFAT-GFP ASSAY Positive Cell lines” value is on record as “(+/−), THP1 (+/−),” (coculture with Bv173 cells); “KG1 (2+)” (coculture with KG1 cells); “MOLM13 (+/−), Bv173” (coculture with MOLM13 cells); “(+/−), THP1 (+/−),” (coculture with THP1 cells).

B4: 100615-C06 (protein)
chain: MALPVTALLLPLALLLHAARPDIQMTQSPSSLSASVGDRVTITCRASQGIRNNLAWYQQKPGKAPKRLIYAASNLQSGVPSRFTGSGSGTEFTLIVSSLQPEDFATYYCLQHHSYPLTSGGGTKVELEGKPIPNPLLGLDSTGSGEDLKNVFPPEVAVFEPSKAEIAHTQKATLVCLATGFYPDHVELSWWVNGKEVHSGVCTDPQPLKEQPALNDSRYCLSSRLRVSATFWQNPRNHFRCQVQFYGLSENDEWTQDRAKPVTQIVSAEAWGRADCGITSASYHQGVLSATILYEILLGKATLYAVLVSALVLMAMVKRKDSRGRAKRSGSGATNFSLLKQAGDVEENPGPTSMDWIWRILFLVGAATGAHSFEEVQVLESGGGLVQPGGSLRLSCAASGFTFSSYAMSWVRQAPGKGLEWVSAISGSGGSTNYADSVKGRFTISRDNSKNTLYLQMNSLRAEDTAVYYCAGSSGWSEYWGQGTLVTVSSTREQKLISEEDGSGIQNPDPAVYQLRDSKSSDKSVCLFTDFDSQTNVSQSKDSDVYITDKCVLDMRSMDFKSNSAVAWSNKSDFACANAFNNSIIPEDTFFPSSDVPCDVKLVEKSFETDTNLNFQNLSVIGFRILLLKVAGFNLLMTLRLWSSRAKRSGSGVKQTLNFDLLKLAGDVESNPGPSRGHMTEYKPTVRLATRDDVPRAVRTLAAAFADYPATRHTVDPDRHIERVTELQELFLTRVGLDIGKVWVADDGAAVAVWTTPESVEAGAVFAEIGPRMAELSGSRLAAQQQMEGLLAPHRPKEPAWFLATVGVSPDHQGKGLGSAVVLPGVEAAERAGVPAFLETSAPRNLPFYERLGFTVTADVEVPEGPRTWCMTRKPGA
modifications: Synthetic Immune Receptor (SIR)
As to B4, the “NFAT-GFP ASSAY Positive Cell lines” value runs as follows: (coculture with HeLa (Hela) cells) “(+/−)”; (coculture with LoVo cells) “LoVo (+/−), HeLa”.

B5: 111815-E04 (protein)
chain: MALPVTALLLPLALLLHAARPDEFEVQLVESGGGLVQAGGSLRLSCVASGISSSKRNMGWYRQAPGKQRESVATISSGGNKDYTDAVKDRFTISRDTTKNTVYLQMNSLKPEDTAVYYCKIEAGTGWATRRGYTYWGQGTLVTVSSLEGKPIPNPLLGLDSTGSGEDLKNVFPPEVAVFEPSEAEISHTQKATLVCLATGFYPDHVELSWWVNGKEVHSGVCTDPQPLKEQPALNDSRYCLSSRLRVSATFWQNPRNHFRCQVQFYGLSENDEWTQDRAKPVTQIVSAEAWGRADCGFTSESYQQGVLSATILYEILLGKATLYAVLVSALVLMAMVKRKDSRGRAKRSGSGATNFSLLKQAGDVEENPGPTSMDWIWRILFLVGAATGAHSFEVQLVESGGGSVQAGGSLRLSCTTSGRALNMYVMGWFRQAPGNEREFVAATSSSGGSTSYPDSVKGRFTISRDNAKNTVYLQMNSLKPEDTAAYRCAASPYVSTPTMNILEEYRYWGLGTQVTVSSTREQKLISEEDGSGIQNPDPAVYQLRDSKSSDKSVCLFTDFDSQTNVSQSKDSDVYITDKCVLDMRSMDFKSNSAVAWSNKSDFACANAFNNSIIPEDTFFPSPESSCDVKLVEKSFETDTNLNFQNLSVIGFRILLLKVAGFNLLMTLRLWSSRAKRSGSGVKQTLNFDLLKLAGDVESNPGPSRGHMTEYKPTVRLATRDDVPRAVRTLAAAFADYPATRHTVDPDRHIERVTELQELFLTRVGLDIGKVWVADDGAAVAVWTTPESVEAGAVFAEIGPRMAELSGSRLAAQQQMEGLLAPHRPKEPAWFLATVGVSPDHQGKGLGSAVVLPGVEAAERAGVPAFLETSAPRNLPFYERLGFTVTADVEVPEGPRTWCMTRKPGA
modifications: Polynucleotide encoding a Synthetic Immune Receptor (SIR)
Consider B5, for which the “NFAT-GFP ASSAY Positive Cell lines” value reads like this: (coculture with Bv173 cells) “(2+)”; (coculture with U266 cells) “U266 (2+), Bv173”.
